From patent US20140213513A1 (Sanofi, priority 2012, published 2014)
*1 amine or outer side, *2 acyl side, *3 side chain or, on linkers, in order; H or OH if unused. Where no end group is shown, it is not given here. Side-chain parts run from the residue outwards. [ ]: non-standard residue; d: D form. The star is where a group is joined. γGlu = O=C(O)[C@H](CCC(=O)[*:2])N[*:1]; Stearoyl = CCCCCCCCCCCCCCCCCC(=O)*; Palmitoyl = CCCCCCCCCCCCCCCC(=O)*; Aib = CC(C)(N)C(=O)O

T1: human GIP receptor (human, UniProt P48546 22-466)
T1 sequence (looked up): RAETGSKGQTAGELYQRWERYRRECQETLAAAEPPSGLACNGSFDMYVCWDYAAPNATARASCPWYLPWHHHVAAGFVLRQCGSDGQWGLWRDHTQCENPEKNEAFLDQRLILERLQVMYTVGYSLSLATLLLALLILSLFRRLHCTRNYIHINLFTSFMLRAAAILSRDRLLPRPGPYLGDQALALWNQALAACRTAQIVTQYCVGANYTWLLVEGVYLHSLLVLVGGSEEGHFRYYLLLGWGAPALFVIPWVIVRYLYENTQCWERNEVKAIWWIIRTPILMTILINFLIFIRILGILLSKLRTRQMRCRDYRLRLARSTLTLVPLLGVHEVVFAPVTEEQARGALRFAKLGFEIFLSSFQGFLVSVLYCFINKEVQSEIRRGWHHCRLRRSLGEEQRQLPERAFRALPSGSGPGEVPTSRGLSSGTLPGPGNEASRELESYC

B1: exendin-4 peptide analogue SEQ ID NO: 45 (peptide)
peptide: Y[Aib]QGTFTSDLSIQK([γGlu-Palmitoyl])EKRAAQLFIEWLKNGGPSSGAPPPS-NH2
modifications: N-terminus assumed
SMILES: CCCCCCCCCCCCCCCC(=O)N[C@@H](CCC(=O)NCCCC[C@H](NC(=O)[C@H](CCC(N)=O)NC(=O)[C@@H](NC(=O)[C@H](CO)NC(=O)[C@H](CC(C)C)NC(=O)[C@H](CC(=O)O)NC(=O)[C@H](CO)NC(=O)[C@@H](NC(=O)[C@H](Cc1ccccc1)NC(=O)[C@@H](NC(=O)CNC(=O)[C@H](CCC(N)=O)NC(=O)C(C)(C)NC(=O)[C@@H](N)Cc1ccc(O)cc1)[C@@H](C)O)[C@@H](C)O)[C@@H](C)CC)C(=O)N[C@@H](CCC(=O)O)C(=O)N[C@@H](CCCCN)C(=O)N[C@@H](CCCNC(=N)N)C(=O)N[C@@H](C)C(=O)N[C@@H](C)C(=O)N[C@@H](CCC(N)=O)C(=O)N[C@@H](CC(C)C)C(=O)N[C@@H](Cc1ccccc1)C(=O)N[C@H](C(=O)N[C@@H](CCC(=O)O)C(=O)N[C@@H](Cc1c[nH]c2ccccc12)C(=O)N[C@@H](CC(C)C)C(=O)N[C@@H](CCCCN)C(=O)N[C@@H](CC(N)=O)C(=O)NCC(=O)NCC(=O)N1CCC[C@H]1C(=O)N[C@@H](CO)C(=O)N[C@@H](CO)C(=O)NCC(=O)N[C@@H](C)C(=O)N1CCC[C@H]1C(=O)N1CCC[C@H]1C(=O)N1CCC[C@H]1C(=O)N[C@@H](CO)C(N)=O)[C@@H](C)CC)C(=O)O
B2: exendin-4 peptide analogue SEQ ID NO: 43 (peptide)
peptide: Y[Aib]QGTFTSDLSIQK([γGlu-Palmitoyl])DSRAAQDFIEWLKKGGPSSGAPPPS-NH2
modifications: N-terminus assumed
SMILES: CCCCCCCCCCCCCCCC(=O)N[C@@H](CCC(=O)NCCCC[C@H](NC(=O)[C@H](CCC(N)=O)NC(=O)[C@@H](NC(=O)[C@H](CO)NC(=O)[C@H](CC(C)C)NC(=O)[C@H](CC(=O)O)NC(=O)[C@H](CO)NC(=O)[C@@H](NC(=O)[C@H](Cc1ccccc1)NC(=O)[C@@H](NC(=O)CNC(=O)[C@H](CCC(N)=O)NC(=O)C(C)(C)NC(=O)[C@@H](N)Cc1ccc(O)cc1)[C@@H](C)O)[C@@H](C)O)[C@@H](C)CC)C(=O)N[C@@H](CC(=O)O)C(=O)N[C@@H](CO)C(=O)N[C@@H](CCCNC(=N)N)C(=O)N[C@@H](C)C(=O)N[C@@H](C)C(=O)N[C@@H](CCC(N)=O)C(=O)N[C@@H](CC(=O)O)C(=O)N[C@@H](Cc1ccccc1)C(=O)N[C@H](C(=O)N[C@@H](CCC(=O)O)C(=O)N[C@@H](Cc1c[nH]c2ccccc12)C(=O)N[C@@H](CC(C)C)C(=O)N[C@@H](CCCCN)C(=O)N[C@@H](CCCCN)C(=O)NCC(=O)NCC(=O)N1CCC[C@H]1C(=O)N[C@@H](CO)C(=O)N[C@@H](CO)C(=O)NCC(=O)N[C@@H](C)C(=O)N1CCC[C@H]1C(=O)N1CCC[C@H]1C(=O)N1CCC[C@H]1C(=O)N[C@@H](CO)C(N)=O)[C@@H](C)CC)C(=O)O
B3: exendin-4 peptide analogue SEQ ID NO: 44 (peptide)
peptide: Y[Aib]QGTFTSDLSIQK([γGlu-Palmitoyl])DKRAAQDFIEWLKKGGPSSGAPPPS-NH2
modifications: N-terminus assumed
SMILES: CCCCCCCCCCCCCCCC(=O)N[C@@H](CCC(=O)NCCCC[C@H](NC(=O)[C@H](CCC(N)=O)NC(=O)[C@@H](NC(=O)[C@H](CO)NC(=O)[C@H](CC(C)C)NC(=O)[C@H](CC(=O)O)NC(=O)[C@H](CO)NC(=O)[C@@H](NC(=O)[C@H](Cc1ccccc1)NC(=O)[C@@H](NC(=O)CNC(=O)[C@H](CCC(N)=O)NC(=O)C(C)(C)NC(=O)[C@@H](N)Cc1ccc(O)cc1)[C@@H](C)O)[C@@H](C)O)[C@@H](C)CC)C(=O)N[C@@H](CC(=O)O)C(=O)N[C@@H](CCCCN)C(=O)N[C@@H](CCCNC(=N)N)C(=O)N[C@@H](C)C(=O)N[C@@H](C)C(=O)N[C@@H](CCC(N)=O)C(=O)N[C@@H](CC(=O)O)C(=O)N[C@@H](Cc1ccccc1)C(=O)N[C@H](C(=O)N[C@@H](CCC(=O)O)C(=O)N[C@@H](Cc1c[nH]c2ccccc12)C(=O)N[C@@H](CC(C)C)C(=O)N[C@@H](CCCCN)C(=O)N[C@@H](CCCCN)C(=O)NCC(=O)NCC(=O)N1CCC[C@H]1C(=O)N[C@@H](CO)C(=O)N[C@@H](CO)C(=O)NCC(=O)N[C@@H](C)C(=O)N1CCC[C@H]1C(=O)N1CCC[C@H]1C(=O)N1CCC[C@H]1C(=O)N[C@@H](CO)C(N)=O)[C@@H](C)CC)C(=O)O
B4: exendin-4 peptide analogue SEQ ID NO: 42 (peptide)
peptide: Y[Aib]EGTFTSDLSIQK([γGlu-Stearoyl])ESKAAQEFIEWLKAGGPSSGAPPPS-NH2
modifications: N-terminus assumed
SMILES: CCCCCCCCCCCCCCCCCC(=O)N[C@@H](CCC(=O)NCCCC[C@H](NC(=O)[C@H](CCC(N)=O)NC(=O)[C@@H](NC(=O)[C@H](CO)NC(=O)[C@H](CC(C)C)NC(=O)[C@H](CC(=O)O)NC(=O)[C@H](CO)NC(=O)[C@@H](NC(=O)[C@H](Cc1ccccc1)NC(=O)[C@@H](NC(=O)CNC(=O)[C@H](CCC(=O)O)NC(=O)C(C)(C)NC(=O)[C@@H](N)Cc1ccc(O)cc1)[C@@H](C)O)[C@@H](C)O)[C@@H](C)CC)C(=O)N[C@@H](CCC(=O)O)C(=O)N[C@@H](CO)C(=O)N[C@@H](CCCCN)C(=O)N[C@@H](C)C(=O)N[C@@H](C)C(=O)N[C@@H](CCC(N)=O)C(=O)N[C@@H](CCC(=O)O)C(=O)N[C@@H](Cc1ccccc1)C(=O)N[C@H](C(=O)N[C@@H](CCC(=O)O)C(=O)N[C@@H](Cc1c[nH]c2ccccc12)C(=O)N[C@@H](CC(C)C)C(=O)N[C@@H](CCCCN)C(=O)N[C@@H](C)C(=O)NCC(=O)NCC(=O)N1CCC[C@H]1C(=O)N[C@@H](CO)C(=O)N[C@@H](CO)C(=O)NCC(=O)N[C@@H](C)C(=O)N1CCC[C@H]1C(=O)N1CCC[C@H]1C(=O)N1CCC[C@H]1C(=O)N[C@@H](CO)C(N)=O)[C@@H](C)CC)C(=O)O
B5: exendin-4 peptide analogue SEQ ID NO: 46 (peptide)
peptide: Y[Aib]QGTFTSDLSIQK([γGlu-Palmitoyl])EKRAVQLFIEWLKNGGPSSGAPPPS-NH2
modifications: N-terminus assumed
SMILES: CCCCCCCCCCCCCCCC(=O)N[C@@H](CCC(=O)NCCCC[C@H](NC(=O)[C@H](CCC(N)=O)NC(=O)[C@@H](NC(=O)[C@H](CO)NC(=O)[C@H](CC(C)C)NC(=O)[C@H](CC(=O)O)NC(=O)[C@H](CO)NC(=O)[C@@H](NC(=O)[C@H](Cc1ccccc1)NC(=O)[C@@H](NC(=O)CNC(=O)[C@H](CCC(N)=O)NC(=O)C(C)(C)NC(=O)[C@@H](N)Cc1ccc(O)cc1)[C@@H](C)O)[C@@H](C)O)[C@@H](C)CC)C(=O)N[C@@H](CCC(=O)O)C(=O)N[C@@H](CCCCN)C(=O)N[C@@H](CCCNC(=N)N)C(=O)N[C@@H](C)C(=O)N[C@H](C(=O)N[C@@H](CCC(N)=O)C(=O)N[C@@H](CC(C)C)C(=O)N[C@@H](Cc1ccccc1)C(=O)N[C@H](C(=O)N[C@@H](CCC(=O)O)C(=O)N[C@@H](Cc1c[nH]c2ccccc12)C(=O)N[C@@H](CC(C)C)C(=O)N[C@@H](CCCCN)C(=O)N[C@@H](CC(N)=O)C(=O)NCC(=O)NCC(=O)N1CCC[C@H]1C(=O)N[C@@H](CO)C(=O)N[C@@H](CO)C(=O)NCC(=O)N[C@@H](C)C(=O)N1CCC[C@H]1C(=O)N1CCC[C@H]1C(=O)N1CCC[C@H]1C(=O)N[C@@H](CO)C(N)=O)[C@@H](C)CC)C(C)C)C(=O)O
B6: exendin-4 peptide analogue SEQ ID NO: 9 (peptide)
peptide: Y[Aib]QGTFTSDLSIQK([γGlu-Palmitoyl])EK[Aib]AA[Aib]EFIEWLKNTGPSSGAPPPS-NH2
modifications: N-terminus assumed
SMILES: CCCCCCCCCCCCCCCC(=O)N[C@@H](CCC(=O)NCCCC[C@H](NC(=O)[C@H](CCC(N)=O)NC(=O)[C@@H](NC(=O)[C@H](CO)NC(=O)[C@H](CC(C)C)NC(=O)[C@H](CC(=O)O)NC(=O)[C@H](CO)NC(=O)[C@@H](NC(=O)[C@H](Cc1ccccc1)NC(=O)[C@@H](NC(=O)CNC(=O)[C@H](CCC(N)=O)NC(=O)C(C)(C)NC(=O)[C@@H](N)Cc1ccc(O)cc1)[C@@H](C)O)[C@@H](C)O)[C@@H](C)CC)C(=O)N[C@@H](CCC(=O)O)C(=O)N[C@@H](CCCCN)C(=O)NC(C)(C)C(=O)N[C@@H](C)C(=O)N[C@@H](C)C(=O)NC(C)(C)C(=O)N[C@@H](CCC(=O)O)C(=O)N[C@@H](Cc1ccccc1)C(=O)N[C@H](C(=O)N[C@@H](CCC(=O)O)C(=O)N[C@@H](Cc1c[nH]c2ccccc12)C(=O)N[C@@H](CC(C)C)C(=O)N[C@@H](CCCCN)C(=O)N[C@@H](CC(N)=O)C(=O)N[C@H](C(=O)NCC(=O)N1CCC[C@H]1C(=O)N[C@@H](CO)C(=O)N[C@@H](CO)C(=O)NCC(=O)N[C@@H](C)C(=O)N1CCC[C@H]1C(=O)N1CCC[C@H]1C(=O)N1CCC[C@H]1C(=O)N[C@@H](CO)C(N)=O)[C@@H](C)O)[C@@H](C)CC)C(=O)O

Target: human glucagon receptor (human, UniProt P47871 26-477)
Experiment: cell-based or functional assay

Sequence of human glucagon receptor (P47871 26-477): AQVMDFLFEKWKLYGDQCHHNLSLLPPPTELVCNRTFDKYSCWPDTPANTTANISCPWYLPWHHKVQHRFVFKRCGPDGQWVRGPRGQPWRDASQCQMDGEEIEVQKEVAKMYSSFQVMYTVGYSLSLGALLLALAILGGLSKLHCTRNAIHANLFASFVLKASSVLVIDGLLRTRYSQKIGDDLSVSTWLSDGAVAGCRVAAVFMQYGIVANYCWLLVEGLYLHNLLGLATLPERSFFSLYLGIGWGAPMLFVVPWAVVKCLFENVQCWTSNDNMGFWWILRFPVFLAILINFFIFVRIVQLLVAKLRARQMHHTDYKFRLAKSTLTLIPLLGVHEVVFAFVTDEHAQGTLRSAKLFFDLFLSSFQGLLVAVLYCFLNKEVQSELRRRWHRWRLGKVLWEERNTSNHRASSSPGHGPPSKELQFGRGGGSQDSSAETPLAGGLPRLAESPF

Binder	EC50 hGLUC R [nM]
B1	0.0797
B2	0.114
B3	0.0552
B4	8.47
B5	0.53
B6	0.445

Target: human GLP-1 receptor (human, UniProt P43220 24-463)
Experiment: cell-based or functional assay

Binder	EC50 hGLP-1 R [nM]
B1	0.0114
B2	0.007
B3	0.0097
B4	0.0062
B5	0.0235
B6	0.0055

Target: T1, human GIP receptor
Experiment: cell-based or functional assay

Binder	EC50 hGIP R [nM]
B1	0.0234
B2	0.0482
B3	0.0255
B4	0.0129
B5	0.0202
B6	0.009
